These results are taken from patent publication US20170369592A1, “NOVEL ANTI-FIBROBLAST ACTIVATION PROTEIN (FAP) ANTIBODIES AND USES DERIVED THEREOF” (Mabimmune Diagnostics AG, priority 2015, published 2017).

Numbering of substitutions follows the chain as printed.

The conditions of data set [1]: pH 7.8; cited from earlier work.
For data set [2] the following is noted: cyclization; cited from earlier work.
For data set [3], the system named is tumor growth in NSCLC and MCRC. The conditions noted are these: mouse models; cited from earlier work.
In data set [4] the target is directly coated FAP peptides mixture (cFAP). The experiment in a line: Direct ELISA, mixture of FAP-specific peptides directly coated. It is filed as binding, human. The note with it: non-linear regression. The procedure: ELISA assays were performed with varying antibody concentrations to validate the binding of the exemplary antibodies of the present invention to FAP and to be able to determine their half maximal effective concentration (EC50). For the exemplary recombinant human NI-206.82C2, NI-206.59B4, NI-206.22F7, NI-206.27E8, NI-206.12G4 and NI-206.17A6 antibodies, 96-well microplates (Costar, Corning, USA) were coated with FAP, with a mixture of the 3 peptides or with BSA (Sigma-Aldrich, Buchs, Switzerland) diluted to a concentration of 5 μg/ml in carbonate ELISA coating buffer (15 mM Na2CO3, 35 mM NaHCO3, pH 9.4) for the direct ELISA. For the capture ELISA, the microplates were coated with mouse anti-His monoclonal antibody (Clontech) diluted to a concentration of 3 μg/ml in PBS, the plates were then blocked, FAP or BSA were diluted to a concentration of 2 μg/ml in PBS and added to the plates to be captured. The binding efficiency of the antibodies was then tested. The exemplary NI-206.82C2 antibody specifically and strongly binds to the captured FAP and less efficiently to the directly coated FAP. The exemplary NI-206.59B4 antibody specifically, strongly and similarly binds to the captured FAP and to the directly coated FAP.
The EC50 values were estimated by a non-linear regression using GraphPad Prism (San Diego, USA) software. […] The binding of NI-206.12G4 towards sFAP was not tested.

In data set [5] the target is T1, recombinant human Fibroblast Activation Protein (FAP) (human, UniProt Q12884 26-760).
T1 sequence (looked up): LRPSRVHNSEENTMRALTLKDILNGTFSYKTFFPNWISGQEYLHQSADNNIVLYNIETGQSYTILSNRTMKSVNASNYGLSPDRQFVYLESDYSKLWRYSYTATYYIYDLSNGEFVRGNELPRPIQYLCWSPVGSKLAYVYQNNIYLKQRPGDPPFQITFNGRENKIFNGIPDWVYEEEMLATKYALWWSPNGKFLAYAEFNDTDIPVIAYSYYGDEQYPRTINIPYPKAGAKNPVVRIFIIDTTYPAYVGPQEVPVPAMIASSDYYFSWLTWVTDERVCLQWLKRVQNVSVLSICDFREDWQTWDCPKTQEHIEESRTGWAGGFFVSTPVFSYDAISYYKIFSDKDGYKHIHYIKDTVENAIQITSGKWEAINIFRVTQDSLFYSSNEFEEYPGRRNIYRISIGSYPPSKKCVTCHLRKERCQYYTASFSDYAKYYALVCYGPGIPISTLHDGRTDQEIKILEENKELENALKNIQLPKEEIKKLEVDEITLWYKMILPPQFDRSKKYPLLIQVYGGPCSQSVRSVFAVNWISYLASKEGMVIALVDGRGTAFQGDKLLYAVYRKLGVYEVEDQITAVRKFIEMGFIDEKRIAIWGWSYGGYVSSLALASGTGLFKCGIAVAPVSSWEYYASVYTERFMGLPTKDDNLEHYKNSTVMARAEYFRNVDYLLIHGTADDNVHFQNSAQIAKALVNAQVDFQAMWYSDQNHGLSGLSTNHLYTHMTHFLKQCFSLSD
Put plainly: cell-based or functional assay.

The target in data set [6] is T1, recombinant human Fibroblast Activation …. Put plainly: cell-based or functional assay. This is another data set of the same source.
Data set [7] concerns the target T2, recombinant human Dipeptidyl Peptidase IV (DPPIV) (human, UniProt P27487 29-766, limits assumed).
T2 construct: Bought; also called rhDPPIV; DPP4
Put plainly: ELISA, recombinant human CD26 on the plate, NI-206.82C2 detected with HRP goat anti-human antibody, OD450. For orientation: An ELISA detects its analyte on a solid surface through an enzyme-linked reagent.

Data set [8] has as its target T1, recombinant human Fibroblast Activation …. The experiment in a line: ELISA, tagged rhFAP captured on the plate with an anti-tag antibody, HRP-labelled NI-206.82C2, TMB, OD 450 nm; axis unit as printed (pM) [continued) B]. The text has this: Active recombinant human enzymes evaluated in this assay include: Fibroblast Activation Protein (FAP; Sino Biologicals, 10464-H07H), Dipeptidyl Peptidase IV (DPPIV, BPS Bioscience 80040), Dipeptidyl Peptidase 8 (DPP8, BPS Bioscience 80080), Dipeptidyl Peptidase 9 (DPP9, BPS Bioscience 80080), and Prolyl Oligopeptidase/Prolyl Endopeptidase (POP/PREP, BPS Bioscience 80105). Each recombinant peptidase was expressed with a purification tag, and attached to the 96 well ELISA plate using either a mouse anti-Histidine antibody (CloneTech), or a mouse anti-Glutathione S-transferase (GST, Sino Biologicals, 111213-MM02) tag antibody. […] H-Gly-Pro-AMC (ATT Bioquest, 13450) was used to validate the presence and activity of DPP4, DPP9, and DPP8. Z-Gly-Pro-AMC (BaChem, 11145) was used to evaluate the activity of FAP and POP/PREP. […] Following a washing step, bound antibody was detected using 3,3′,5,5′-Tetramethylbenzidine (TMB) substrate.

For data set [9], the target named is T3, active recombinant murine FAP (mouse, UniProt P97321 26-761).
T3 sequence (looked up): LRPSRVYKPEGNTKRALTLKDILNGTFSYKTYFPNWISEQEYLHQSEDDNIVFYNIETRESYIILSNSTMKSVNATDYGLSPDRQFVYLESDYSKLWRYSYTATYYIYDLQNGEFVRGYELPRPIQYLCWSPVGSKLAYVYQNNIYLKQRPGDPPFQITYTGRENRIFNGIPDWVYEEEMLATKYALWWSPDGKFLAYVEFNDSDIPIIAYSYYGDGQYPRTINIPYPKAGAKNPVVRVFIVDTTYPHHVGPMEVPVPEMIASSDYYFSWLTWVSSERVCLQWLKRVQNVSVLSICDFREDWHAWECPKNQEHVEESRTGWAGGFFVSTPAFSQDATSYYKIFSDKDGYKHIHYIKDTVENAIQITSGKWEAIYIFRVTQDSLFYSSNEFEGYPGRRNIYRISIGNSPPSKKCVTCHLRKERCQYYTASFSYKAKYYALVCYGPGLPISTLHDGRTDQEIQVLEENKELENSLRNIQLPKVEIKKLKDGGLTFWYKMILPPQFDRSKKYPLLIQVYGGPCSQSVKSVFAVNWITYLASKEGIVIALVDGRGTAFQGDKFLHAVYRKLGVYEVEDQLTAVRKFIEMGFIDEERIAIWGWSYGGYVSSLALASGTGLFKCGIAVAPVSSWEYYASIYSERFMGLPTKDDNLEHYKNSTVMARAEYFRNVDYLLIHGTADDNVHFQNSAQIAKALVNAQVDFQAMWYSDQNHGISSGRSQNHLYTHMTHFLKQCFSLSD
The experiment in a line: cell-based or functional assay.

T2 sequence (P27487 29-766 limits assumed): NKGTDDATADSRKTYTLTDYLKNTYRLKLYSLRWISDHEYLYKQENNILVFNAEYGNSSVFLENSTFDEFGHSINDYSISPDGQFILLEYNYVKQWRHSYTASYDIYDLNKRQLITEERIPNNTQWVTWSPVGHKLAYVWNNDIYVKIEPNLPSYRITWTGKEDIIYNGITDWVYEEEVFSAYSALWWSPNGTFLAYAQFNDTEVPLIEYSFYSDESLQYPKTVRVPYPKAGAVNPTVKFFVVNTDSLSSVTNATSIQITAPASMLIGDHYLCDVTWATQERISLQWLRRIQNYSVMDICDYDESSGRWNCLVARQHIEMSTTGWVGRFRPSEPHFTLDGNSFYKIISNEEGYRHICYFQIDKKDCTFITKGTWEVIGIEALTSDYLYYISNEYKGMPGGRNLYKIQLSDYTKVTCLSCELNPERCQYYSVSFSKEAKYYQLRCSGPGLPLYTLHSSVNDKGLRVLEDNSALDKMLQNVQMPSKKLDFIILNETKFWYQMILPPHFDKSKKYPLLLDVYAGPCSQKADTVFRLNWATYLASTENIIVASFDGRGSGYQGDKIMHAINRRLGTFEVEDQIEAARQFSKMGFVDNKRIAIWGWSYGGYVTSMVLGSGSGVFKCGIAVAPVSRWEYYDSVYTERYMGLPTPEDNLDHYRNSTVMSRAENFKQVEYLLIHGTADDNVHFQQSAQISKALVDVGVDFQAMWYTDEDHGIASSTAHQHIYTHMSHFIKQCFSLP

With `CC(C)[C@H](N)C(=O)N1CCC[C@H]1B(O)O` [Talabostat, Val-boroPro], the “stability of inhibitory activity in aqueous media” value in [1] is “rapidly loses inhibitory activity”. For the molecule `N[C@@H](CCC(=O)O)C(=O)N1CCC[C@H]1B(O)O` [PT-630], the in-vivo stability entry in data set [2] is reported as “poor in-vivo stability”. Besides, in data set [3], the tumor growth entry was “abrogate tumor growth”.

B1: NI-206.27E8: recombinant human-derived monoclonal anti-FAP antibody, variable regions in FIG. 1 (antibody, V domains shown)
VH: EVQLVESGGGLVEPGGSLRLSCAASGFTFSDAWMNWVRQAPGKGLEWVGRIKTKSDGGTTDYAAPVRGRFSISRDDSKNTLFLEMNSLKTEDTAIYYCFITVIVVSSESPLDHWGQGTLVTVSS
VL: SYELTQPPSVSVSPGQTARITCSGDELPKQYAYWYQQKPGQAPVLVIYKDRQRPSGIPERFSGSSSGTTVTLTISGVQAEDEADYYCQSAYSINTYVIFGGGTKLTVL
As for B1, the “EC50, binding to directly coated FAP peptides mixture (cFAP)” value (from here on “EC50, binding”) in data set [4] is recorded as “did not show any binding”.

B2: NI-206.12G4: recombinant human-derived monoclonal anti-FAP antibody, variable regions in FIG. 1 (antibody, V domains shown)
VH: EVQLVESGGGLVKPGGSLRLSCAASGFTFSDYYMSWIRQAPGKGLEWISYISSGSSYTNYADSVKGRFTISRDNAKKSVYLEVNGLTVEDTAVYYCARVRYGDREMATIGGFDFWGQGTLVTVSS
VL: B1 VL with E26A, K38S, R51S, Q52E, Y91D, I93G, N94G, Y96S, V97R
Turning to B2, the “EC50, binding” value in data set [4] is recorded as “did not show any binding”.

B3: NI-206.17A6: recombinant human-derived monoclonal anti-FAP antibody, variable regions in FIG. 1 (antibody, V domains shown)
VH: QVQLQESGPGLVRSTETLSLTCLVSGDSINSHYWSWLRQSPGRGLEWIGYIYYTGPTNYNPSLKSRVSISLGTSKDQFSLKLSSVTAADTARYYCARNKVFWRGSDFYYYMDVWGKGTTVTVSS
VL: EIVLTQSPGTLSLSLGERATLSCRASQSLANNYLAWYQQKPGQAPRLLMYDASTRATGIPDRFSGSGSGTDFTLTISRLEPEDFAVYYCQQFVTSHHMYIFGQGTKVEIK
Take B3: in data set [4], the “EC50, binding” value is “did not show any binding”.

B4: NI-206.59B4: recombinant human-derived monoclonal anti-FAP antibody, variable regions in FIG. 1 (antibody, V domains shown)
VH: QVQLVQSGAEVKKPGASVKVSCKTSGYTFTDYYIHWVRQAPGQGLEWMGWINPNRGGTNYAQKFQGRVTMTRDTSIATAYMELSRLRSDDTAVYYCATASLKIAAVGTFDCWGQGTLVTVSS
VL: SYELTQPPSVSVSPGQTARITCSGDALSKQYAFWFQQKPGQAPILVIYQDTKRPSGIPGRFSGSSSGTTVTLTISGAQADDEADYYCQSADSSGTYVFGTGTKVTVL
As to B4, in [4], the “EC50, binding” value was “did not show any binding”.

B5: NI-206.82C2 (antibody, V domains shown)
VH: QVQLQQSGPGLVKPSQTLSLTCAISGDSVSSNSVTWNWIRQSPSRGLEWLGRTYYRSKWYNDYAVSVKGRITINPDTSKNQFYLQLKSVTPEDAAVYYCARDSSILYGDYWGQGTLVTVSS
VL: QAVLTQPSSLSASPGASASLTCTLPSGINVGTYRIFWFQQKPGSPPQYLLSYKSDSDNHQGSGVPSRFSGSKDASANAGILLISGLQSEDEADYYCMIWHSSAWVFGGGTKLTVL
notes: Labelled with HRP or Cy5 in some assays; also called HRP-labelled 82C2
As to B5, the “IC50, inhibition of rhFAP gelatinase activity (DQ-gelatin cleavage)” value in data set [5] was found to be 7.7 nM. In addition, in data set [6], the “IC50 (read off the curve)” value was ~10 nM. Besides, the binding result in [7] is reported as “no binding (tested: 20 nM)”. In [8], the “EC50 (read off the curve)” value was in the range of 0.04 to 0.05 nM. Moreover, the “IC50 (read off the curve) [continued) B]” value in data set [9] was ~60 nM.

Broadly, the EC50 (read off the curve) is the midpoint of the concentration-response curve.
